Consider 6 substances from paper doi:10.1101/2025.04.08.647717.

Experiment [1] addresses XauDREN-APAZ protein (Xanthobacter autotrophicus strain Py2). Nature of the experiment: cryo-EM structure.
In experiment [2] the target is WT EaeSPARDA (binary DREN-APAZ:Ago monomer) (Enhydrobacter aerosaccus). Nature of the experiment: SEC-MALS. On the technique in general: SEC sorts molecules by how far they enter the pores of the column.
For experiment [3], the target named is WT XauSPARDA (binary DREN-APAZ:Ago monomer) (Xanthobacter autotrophicus strain Py2). Nature of the experiment: SEC-MALS.
The target of experiment [4] is EaeE37A (EaeSPARDA with E37A in the DREN domain of DREN-APAZ) (Enhydrobacter aerosaccus). In words: SEC-MALS.
Experiment [5] deals with XauHSH (XauSPARDA whose XauAgo carries a 29 aa HSH-tag at the C-terminus) (Xanthobacter autotrophicus strain Py2). Nature of the experiment: SEC-MALS.
In experiment [6] the target is XauE37A (XauSPARDA with E37A in the DREN domain of DREN-APAZ) (Xanthobacter autotrophicus strain Py2). Nature of the experiment: SEC-MALS.

The stoichiometry N is a count of units in the complex or per binding partner. Consider XauDREN-APAZ protein (natural protein), for which, in experiment [1], the stoichiometry N turned out to be 4. Turning to “WT EaeSPARDA (binary DREN-APAZ:Ago monomer) (complex)”, the stoichiometry N in experiment [2] was 2. The substance “WT XauSPARDA (binary DREN-APAZ:Ago monomer) (complex)” showed a stoichiometry N in experiment [3] of 2. “EaeE37A (EaeSPARDA with E37A in the DREN domain of DREN-APAZ) (complex)” had a stoichiometry N in experiment [4] of 2.

For “XauHSH (XauSPARDA whose XauAgo carries a 29 aa HSH-tag at the C-terminus) (complex)”, the stoichiometry N in experiment [5] amounted to 2. Turning to “XauE37A (XauSPARDA with E37A in the DREN domain of DREN-APAZ) (complex)”, the stoichiometry N in experiment [6] worked out at 2.
